These results are taken from the supplement of paper PMC9112550, “Optimization of the antimicrobial peptide Bac7 by deep mutational scanning” (BMC Biology, 2022).

This data set has as its system Escherichia coli TOP10. Kind of data set: shrunken log2 fold change of peptide-encoding DNA abundance (4.5 h post-induction vs induction); higher = less antimicrobial activity (less host growth inhibition). The note with it: time post-induction: 4.5 h; library: site-saturation at positions 5, 18, 19, 20.
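Also: peptides expressed intracellularly from a pBAD plasmid library in pooled LB shake-flask culture, induced with 0.3% L-arabinose, DNA abundance read by NGS, three biological replicates, DESeq2 with apeglm shrinkage.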

As for RRIRYRPPRLPRPRPRPPGPPRP, the “shrunken log2 fold change” value is 0.455.

In the case of RRIRMRPPRLPRPRPRPRIKPRP, the “shrunken log2 fold change” value is 0.0377.

On to RRIRQRPPRLPRPRPRPTSQPRP, for which the “shrunken log2 fold change” value was -0.0461.

For RRIRFRPPRLPRPRPRPHMEPRP, the “shrunken log2 fold change” value was -0.405.

Consider RRIRWRPPRLPRPRPRPPQNPRP, for which the “shrunken log2 fold change” value worked out at 0.91.

Take RRIRGRPPRLPRPRPRPPHGPRP: the “shrunken log2 fold change” value came out at 0.903.

Take RRIRWRPPRLPRPRPRPFEVPRP: the “shrunken log2 fold change” value came out at 0.0389.

In the case of RRIRNRPPRLPRPRPRPSQDPRP, the “shrunken log2 fold change” value is -0.102.

As to RRIRVRPPRLPRPRPRPSPVPRP, the “shrunken log2 fold change” value worked out at 0.216.

Consider RRIRARPPRLPRPRPRPVSNPRP, for which the “shrunken log2 fold change” value was 0.296.

Take RRIRDRPPRLPRPRPRPYNDPRP: the “shrunken log2 fold change” value was -0.307.

RRIRMRPPRLPRPRPRPEAPPRP: the “shrunken log2 fold change” value worked out at 3.4.

Take RRIRHRPPRLPRPRPRPGIKPRP: the “shrunken log2 fold change” value turned out to be 0.0126.

As to RRIRRRPPRLPRPRPRPTQSPRP, the “shrunken log2 fold change” value came out at 0.804.

Turning to RRIRQRPPRLPRPRPRPCIHPRP, the “shrunken log2 fold change” value is -0.734.

As for RRIRQRPPRLPRPRPRPSETPRP, the “shrunken log2 fold change” value is -0.216.

With RRIRWRPPRLPRPRPRPKRPPRP, the “shrunken log2 fold change” value stood at 0.873.

As for RRIRLRPPRLPRPRPRPEQAPRP, the “shrunken log2 fold change” value was 0.0554.

As for RRIRYRPPRLPRPRPRPDWRPRP, the “shrunken log2 fold change” value was 0.22.

For RRIRARPPRLPRPRPRPEHCPRP, the “shrunken log2 fold change” value turned out to be 0.0263.

With RRIRLRPPRLPRPRPRPDIAPRP, the “shrunken log2 fold change” value stood at 0.024.

For RRIRERPPRLPRPRPRPHCTPRP, the “shrunken log2 fold change” value was -0.0432.

As to RRIRDRPPRLPRPRPRPMMFPRP, the “shrunken log2 fold change” value turned out to be 0.43.

In the case of RRIRLRPPRLPRPRPRPSDRPRP, the “shrunken log2 fold change” value was -0.147.

On to RRIRVRPPRLPRPRPRPLCNPRP, for which the “shrunken log2 fold change” value is -0.139.

In the case of RRIRIRPPRLPRPRPRPMSDPRP, the “shrunken log2 fold change” value was -0.102.

As for RRIRQRPPRLPRPRPRPIKYPRP, the “shrunken log2 fold change” value was 0.00234.

On to RRIRMRPPRLPRPRPRPVVKPRP, for which the “shrunken log2 fold change” value worked out at 0.189.

Turning to RRIRCRPPRLPRPRPRPMVAPRP, the “shrunken log2 fold change” value turned out to be 0.0319.

With RRIRNRPPRLPRPRPRPRWNPRP, the “shrunken log2 fold change” value is -0.297.

For the sequence RRIRERPPRLPRPRPRPLMDPRP, the “shrunken log2 fold change” value was -0.134.

For RRIRMRPPRLPRPRPRPIKVPRP, the “shrunken log2 fold change” value is -0.149.

With RRIRPRPPRLPRPRPRPDIGPRP, the “shrunken log2 fold change” value was -0.0448.

In the case of RRIRQRPPRLPRPRPRPTGMPRP, the “shrunken log2 fold change” value stood at 0.475.

As for RRIRVRPPRLPRPRPRPNINPRP, the “shrunken log2 fold change” value is -0.608.

RRIRIRPPRLPRPRPRPNVQPRP: the “shrunken log2 fold change” value was -0.284.

As for RRIRFRPPRLPRPRPRPDHEPRP, the “shrunken log2 fold change” value is 0.193.

Turning to RRIRARPPRLPRPRPRPDMWPRP, the “shrunken log2 fold change” value is 0.422.

As to RRIRDRPPRLPRPRPRPPQQPRP, the “shrunken log2 fold change” value is -0.089.

With RRIRCRPPRLPRPRPRPLSDPRP, the “shrunken log2 fold change” value came out at 0.0896.

As to RRIRQRPPRLPRPRPRPNGGPRP, the “shrunken log2 fold change” value was 0.00705.

As to RRIRDRPPRLPRPRPRPDCFPRP, the “shrunken log2 fold change” value came out at 1.04.

For the sequence RRIRRRPPRLPRPRPRPCNYPRP, the “shrunken log2 fold change” value was 0.159.

On to RRIRLRPPRLPRPRPRPQDFPRP, for which the “shrunken log2 fold change” value stood at 0.0788.

In the case of RRIRQRPPRLPRPRPRPIHIPRP, the “shrunken log2 fold change” value was -0.187.

As for RRIRTRPPRLPRPRPRPYRRPRP, the “shrunken log2 fold change” value was -0.0138.

Regarding RRIRTRPPRLPRPRPRPMAIPRP, the “shrunken log2 fold change” value is -0.00284.

On to RRIRYRPPRLPRPRPRPTQSPRP, for which the “shrunken log2 fold change” value came out at 0.0623.

Turning to RRIRVRPPRLPRPRPRPNGNPRP, the “shrunken log2 fold change” value was -0.323.

For RRIRTRPPRLPRPRPRPHWKPRP, the “shrunken log2 fold change” value stood at 0.00556.
